Measurements published in US8652790B2, “Conformational entropy in molecular recognition” (The Trustees of the University of Pennsylvania, priority 2007, dated 2014).

What was measured:
calmodulin [1] = target: T1, calmodulin (Homo sapiens, UniProt P0DP23); test: Populations of J, α, ω motional classes of calmodulin methyl O^2axis distributions in the complexes
Description: FIG. 3a, provides a histogram of the sum of the O^2axis parameter distributions of calmodulin in the six individual complexes obtained at 35° C. The solid line represents the best-fitted solution to a 3-gaussian distribution with all nine parameters fitted. FIG. 3b provides histograms of the O^2axis parameter distributions of calmodulin in the individual complexes. […]
The summed distribution of O^2axis axis parameters of all six complexes was fitted to a random distribution and to one, two- and three-gaussian distribution models. […] (3) where Ai, Ci and Wi define the population, centre and breadth, respectively, of the J, α and ω classes of motion.
The nine parameters were fitted using the nonlinear regression routine of SigmaPlot 2000 (SPSS). […] These centres were fixed in subsequent fitting of the O^2axis distributions of the individual complexes, from which the relative populations of each motional class were obtained. Uncertainties in the fitted populations were estimated by varying the O^2axis parameters by two standard deviations. […] The total change in conformational entropy of calmodulin on binding a target domain was calculated as the sum of three terms: ΔSconf=ΔSharm+ΔSrotamer(fast)+ΔSrotamer(slow). Changes in conformational entropy ΔSrotamer(fast) expressed as changes in motion within a rotameric well on the fast timescale (sub-ns) were obtained from the experimentally determined O^2axis parameters using a simple harmonic oscillator model. Li Z et al. (1996). To calculate changes in entropy derived from motion of the same oscillator, site-to-site comparison to free calcium-saturated calmodulin was used to provide a reference state. The change in the entropy reflected by the change in the motion of each methyl symmetry axis was estimated using ΔSharm=−18×ΔO^2axis J mol^−1 K^−1. See Li Z et al. (1996) for further details of the model. To normalize the unequal number of resolved sites among the complexes, the average methyl order parameter within a complex was assigned to each unresolved site of that complex. A classical entropy term (ΔSrotamer(fast)) was added to represent minor conformers that are sampled owing to fast rotameric interconversion that also contributes to the generalized order parameter. Lee, A. L. et al. Temperature dependence of the internal dynamics of a calmodulin peptide complex. Biochemistry 41, 13814-13825 (2002).

calmodulin [2] = target: T1, calmodulin; test: Uncalibrated estimate of conformational entropy of binding from methyl group dynamics of CaM and target domain; design: made in house; conditions: for Δ O^2axis Target: O^2axis of 0.101 assumed for the free target domain; for Δ O^2axis CaM: free CaM is the reference state; for ΔSfast^conf: harmonic oscillator plus fast minor rotamer states; for ΔStotal^conf: includes classical term from slow-exchange minor cross peaks; for Normalized Δ O^2axis: normalized to number of amino acids in calmodulin (148) and target domain
Text: Using deuterium NMR relaxation methods, fast motion of the methyl-bearing side-chains of the target domains in the six CaM complexes were examined. Muhandiram, D. R. et al., Measurement of H-2 T-1 and T-1p relaxation-times in uniformly C-13-Labeled and fractionally H-2-labeled proteins in solution. J. Am. Chem. Soc. 117, 11536-11544 (1995).
Initially estimates of the conformational entropy of the target domains to the free energy of binding to CaM was obtained using the simple harmonic oscillator model. Li, Z., Raychaudhuri, S., & Wand, A. J., Insights into the local residual entropy of proteins provided by NMR relaxation. Prot. Sci. 5, 2647-2650 (1996). It is assumed that the dynamics of the free unstructured target domain are uniform and correspond to an O^2axis of 0.1. […] This was estimated using a previously described model. Lee, A. L. et al., Temperature dependence of the internal dynamics of a calmodulin peptide complex. Biochemistry 41, 13814-13825 (2002). […] Such heterogeneity would correspond to conformational entropy contributed by states that are not averaged on the NMR chemical shift timescale.
To compare dynamics in the various complexes, we employ a normalization procedure to account for variation in the number of methyl sites in CaM whose motion could be quantified and to account for the fact that, although fully resolved, the number of residues in the target domains ranges between 20 and 26. A simple average was employed. The apparent change in conformational entropy was then calculated as above. To complete the solution of equation (5), the binding entropies obtained by isothermal titration calorimetry were used and calculated the change in solvent entropy using the known structures of free CaM and the five complexes. Kainosho, M. et al., Optimal isotope labelling for NMR protein structure determinations. Nature 440, 52-57 (2006); Aoyagi, M et al., Structural basis for endothelial nitric oxide synthase binding to calmodulin. The EMBO journal 22, 766-775 (2003); Meador, W. E., Means, A. R., & Quiocho, F. A., Target enzyme recognition by calmodulin: 2.4 A structure of a calmodulin-peptide complex. […] Nat. Struct. Biol. 6, 819-824 (1999); Valentine, K. G. et al., The crystal structure and internal dynamics of calmodulin complexed with the calmodulin binding domain of neuronal nitric oxide synthase. Biochemistry, submitted (2007). The empirically determined relationship between changes in accessible surface area and the entropy of solvent is employed. Hilser, V. J. et al., A statistical thermodynamic model of the protein ensemble. Chem. Rev. 106, 1545-1558 (2006). The change in solvent entropy by assuming an extended fully solvated structure for the dissociated domains (see Methods) was calculated. […] Gaboriaud, C. et al., Hydrophobic cluster analysis: an efficient new way to compare and analyse amino acid sequences. FEBS letters 224, 149-155 (1987). […] The surface area of a sphere of equivalent volume of the side-chains in the putative hydrophobic cluster was used as a basis for the solvent entropy calculation. A further correction for the reduction in conformational entropy of the compact free CaMKKα(p) target domain was also applied (see Methods). […] Marlow, M. S. & Wand, A. J., Conformational dynamics of calmodulin in complex with the calmodulin-dependent kinase kinase alpha calmodulin-binding domain. Biochemistry 45, 8732-8741 (2006).

[3] = area under fitted Gaussian, fixed centres
[4] = percentage of counts in class (number of observations), O^2axis 0.5 to 0.7
[5] = percentage of counts in class (number of observations), O^2axis above 0.7
[6] = percentage of counts in class (number of observations), O^2axis up to 0.5

Substance	% J (calmodulin [1]; [3])	% α (calmodulin [1]; [3])	% ω (calmodulin [1]; [3])	% α (calmodulin [1]; [4])	% ω (calmodulin [1]; [5])	% J (calmodulin [1]; [6])	Δ O^2axis Target (calmodulin [2])	Δ O^2axis CaM (calmodulin [2])	ΔSfast^conf (calmodulin [2])	ΔStotal^conf (calmodulin [2])	Normalized Δ O^2axis (calmodulin [2])
(COOH-FPNGFSRKRLMSKVLIVTTWSPLL [CaMKKα(p)]	38.5%	21.3%	40.3%	30%	35%	35%	0.329	0.096	48.2921 kcal/mol	49.7978 kcal/mol	22.632
RKKTFKEVANAVKISASLMG [eNOS(p)]	45.6%	18.4%	36.0%	30%	33%	38%	0.567	0.081	50.278 kcal/mol	53.5045 kcal/mol	23.328
AKSKWKQAFNATAVVRHMRKLQ (listed as Homo sapiens) [CaMKI(p)]	38.2%	24.8%	37.0%	30%	32%	38%	0.555	0.107	60.2916 kcal/mol	63.1334 kcal/mol	28.046

Continued, values first:

% J (calmodulin [1]; [3])	% α (calmodulin [1]; [3])	% ω (calmodulin [1]; [3])	% α (calmodulin [1]; [4])	% ω (calmodulin [1]; [5])	% J (calmodulin [1]; [6])	Δ O^2axis Target (calmodulin [2])	Δ O^2axis CaM (calmodulin [2])	ΔSfast^conf (calmodulin [2])	ΔStotal^conf (calmodulin [2])	Normalized Δ O^2axis (calmodulin [2])	Substance
51.6%	14.7%	33.7%	25%	30%	45%	0.528	0.049	41.5545 kcal/mol	46.7409 kcal/mol	19.396	KRRAIGFKKLAEAVKFSAKLMGQ [nNOS(p)]
48.3%	18.9%	32.8%	33%	20%	46%	–	–	–	–	–	QTEKMWQRLKGILRSLVKQ [PDE(p)]
